The record followed here is US20250333501A1 (University of California, published 2025).

Positions count from the first letter of the chain named. A value given as a limit tells only on which side of the number the result lay.

Sequences and labels used below:
T1: CLDN6 endogenously expressed by human cancer cell lines (ARK2, OVCA429) (human, UniProt P56747 1-220)
T1 construct: Untagged endogenous protein; also called Endogenous CLDN6+
T1 sequence: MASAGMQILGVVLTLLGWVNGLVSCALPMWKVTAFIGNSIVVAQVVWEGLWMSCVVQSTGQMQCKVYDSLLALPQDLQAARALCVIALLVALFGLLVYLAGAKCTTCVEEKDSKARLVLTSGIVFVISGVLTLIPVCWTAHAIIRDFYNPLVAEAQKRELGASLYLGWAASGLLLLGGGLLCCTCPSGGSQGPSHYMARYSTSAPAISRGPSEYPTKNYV

T2: human CLDN6 fused to GFP, expressed on engineered HEK293T cells (HEK293T-CLDN6-mGFP) (human, UniProt P56747 1-220)
T2 construct: It calls residues 1-21 a signal peptide; also called Claudin-6; HEK293T-CLDN6-mGFP Artificial CLDN6+; not shown: mGFP tag
T2 sequence: T1 sequence

B1: AB9 (antibody, V domains shown)
VH: EVQLQQSGPELVKPGASVKMSCKASGYRFTDYNMHWVKQSHGKSLEWIGYINPNNGGTNYNQNFKGKATLTVNKSSSTAYMELRSLTSEDSAAYYCARDYLYFFDCWGQGTTLTVSS
VL: DIQMTQSPASQSASLGESVTITCLASQTIGTWLAWYQQKPGKSPQLLIYAAASLADGVPSRFSGSGSGTRFSFKISSLQAEDFVSYYCQQLYSIPRTFGGGTKLEIK
notes: Labelled with Alexa Fluor 647 NHS ester for FACS
B2: AB4 (antibody, V domains shown)
VH: QVQLQQSGAELARPGASVKMSCKASGYTFTSYTMHWIKQRPGQGQEWIGYINPSSTYTHYIKKFKDKATLTADKSSSTAYMQLRSLTSEDSAVYYCSRGELGGFAYWGQGTLVTVSA
VL: DVVMTQTPLSLPVSLGDQASISCRSSQSLVHSDGNTYLNWYLQKPGQSPKLLIYKVSNRFSGVPDRFSGSGSGTDFTLKIRRVEAEDLGVYFCSQSTHVPYTFGGGTKLEIK
notes: Labelled with Alexa Fluor 647 for FACS and with Texas Red-X in the internalization assay
B3: AB10 (antibody, V domains shown)
VH: QIQLVQSGPALKKPGETVKISCKASGYTFTDYSMHWIKQAPGKGLKWMGWISTETGEPTYADGFKGRFDFSLETSADTAYLSINNLTNEDTATYFCTRGLWSSFAYWGQGTLVTVSA
VL: B2 VL with S25A, D33N, N39H, Y41F, G73R, R81S, S96I
notes: as for B1
B4: AB8 (antibody, V domains shown)
VH: QVQLQQSGAELARPGASVKMSCKASGYTFTTYTMHWLKQRPGQGLEWIGYINPRSGYSNYNQKFKDKATLTADKSSNTAYMQLNTLTSEDSKVYYCSRGELGGFAYWGQGTLVTVSA
VL: B2 VL with N39Y, R81S
notes: as for B1
B5: AB6 (antibody, V domains shown)
VH: DVQLQESGPGLVKSSQSLSLTCSVTGYSITSGYYWKWIRQFPGNKLEWMGYISYDGGINYNPSLKNRISITRDTSKNQFFLKLNSVTTEDTAKYYCARFGKGAMDYWGQGTSVTVSS
VL: AIVMFQSPSSLVVSAGEKVTMSCKSSQSLLNSRTRKNYLAWYQQKPGQSPKLLIYWASTRESGVPDRFTGSGSGTDFTLTISSVQAEDLAVYYCKQSYYLYTFGGGTKLEIK
notes: as for B1
B6: AB1 (antibody, V domains shown)
VH: QVQLQQSAAELARPGASVKMSCKASGYTFTTYTMHWVKQRPGQGLEWIGFINPSSGYTDYNQKFKDRTTLTADKSSSTVYMQLSSLTSEDSAVYYCANGDYYVAYWGQGTLVTVSA
VL: QIVLTQSPAIMSASLGERVTMTCTASSSVSSTYFHWYQQKPGSSPKLWIYSTSNLASGVPRRFSGSASGTSYSLTISSMEAEDAATYYCHQYHRSPLTFGAGTKLELK
notes: as for B1
B7: AB7 (antibody, V domains shown)
VH: EVQLQQSGPELVKPGASMKISCKASGYSFTGYTMNWVKQSHGKNLEWIGLINPYNGGTNYNQKFKGKATLTVDKSSSTAYMELLSLTSEDSAVYYCARGVYDYDGFTYWGQGTLVTVSA
VL: B6 VL with E17D, T32S, F34L, R61A, A67G, L97P, A101S, L107I
notes: as for B1
B8: AB5 (antibody, V domains shown)
VH: EVQLQQSGPELVKPGASVKMSCKASGYIFTHYIMHWVKQKPGQGLEWIGCINPYNDGTKYNEKFKGKATLTSDKSSSTAYMELSSLTSEDSAVYYCARYYGYPYYSMDYWGQGTSVTVSS
VL: DVLMTQTPLSLPVSLGDQPSISCRSSQSIVHSNGNTYLDWYLQKPGQSPKLLIYKVSNRFSGVPDRFSGSGSGTDFTLKISRVEAEDLGVYYCFQGSHVPFTFGSGTRLEIK
notes: as for B1
B9: AB11 (antibody, V domains shown)
VH: DVQLVESGGGLVQPRGSRKLSCAASGFTFSSFGMHWVRQAPEKGLEWVAYISSDSRTIYYADTVKGRFTISRDNPTNTLFLQMTSLRSEDTAMYYCARDYGRTYEAYWGQGTLVTVSA
VL: DIVLTQSPASLAVSLGQRATISCRASKSVSTSGYSYIHWYQQKPGQPPKLLIYLASNLESGVPARFSGSGSGTDFTLNIHPVEEEDAATYYCQHSRELPLTFGAGTKLELK
notes: as for B1
B10: AB13 (antibody, V domains shown)
VH: QVQLQQSGAELVRPGTSVKVSCKASGYAFSNYLIEWVKQRPGQGLEWIGVINPGSGGTNYNEKFKGKATMTADKSSSTAYMHLSNLTSEDSVVYFCARSYFGRSYPYTMDYWGQGTSVTVSS
VL: EIVLTQSPTTMAASPGEKITITCSASSSISSNYLHWYQQKPGFSPKLLIYRTSNLASGVPARFSGSGSGTSYSLTIGTMEAEDVATYYCQQGSSIPLTFGAGTKLELK
notes: as for B1
B11: AB3 (antibody, V domains shown)
VH: EVKLEESGGGLVQPGGSMKLSCVASGFTFSNYWMNWVRQSPEKGLEWVAQIRLKSDNYATHYAESVKGRFTISRDDSKRSVYLQMNNLRAEDTGTYYCNDGPPSGCWGQGTTLIVSS
VL: DIQMTQSPASLSASVGETVTITCRISENIYSYLAWYQQKQGKSPQLLVYNAKILVEGVPSRFSGSGSGTQFSLKINSLQPEDFGNYYCQHHYTVPWTFGGGTKLEIK
notes: as for B2
B12: AB2 (antibody, V domains shown)
VH: B11 VH with N31D
VL: B11 VL
notes: as for B1
B13: AB12 (antibody, V domains shown)
VH: EVKLMESGGDLVKPGGSLKLSCAASGFTFSSYAMSWVRQTPEKRLEWVASIRSGGTTYYPDSVKGRFTISRDNARNILYLRMSSLRSEDTAIYYCAKVGGNPYPMDYWGQGTSVTVSS
VL: DIQMIQSPSSMFASLGDRVSLSCRASQDIGGNLDWYQQKPGGTIKLLIYSTSNLNSGVPSRFSGSGSGSDYSLTITSLESEDFADYYCLQRNAYPLTFGAGTKLELK
notes: as for B1
B14: AB19 (antibody, V domains shown)
VH: EVQLQQSGPELVKPGGSMKISCKASGYSFTGYTMNWVKRSHGKNLEWIGLINPYNGVTTYNQNFKGKATLAVDKSSSTAYMELLGLTSEDSAVYYCTRDPLYYGYRDSTMDYWGQGTSVTVSS
VL: NIMMTQSPSSLAVSAGEKVTMSCKSSQSVLFSSNQKNYLAWYQQKPGQSPRLLIYWASTRESGVPDRFTGSGSGTDFTLTISNVQAEDLAVYYCHQYLSSRTFGAGTKLELK
notes: as for B1

The first assay has as its target T1, CLDN6 endogenously expressed by human …. As to the kind of experiment: FACS, AF647-labelled mAb, OVCA429 cells. As to the method: (§1) Antibodies were purified and cell surface binding of the antibodies to CLDN6 and the antibody IC₅₀ were determined by FACS in which CLDN6 antibodies were directly conjugated with Alexa Fluor® 647 NHS Ester (Succinimidyl Ester), Cat #A20106 (ThermoFisher Scientific) following the manufacturer's protocol. CLDN6 antibodies were tested from 0.32 nM to 1000 nM (serial dilution 1:5, 6 points) in a 50 μl volume with 150,000 cells system.
(§2) CLDN6-expressing cells were used in FACS assays to determine the CLDN6 antibody's ability to bind to CLDN6 on the surface of cells and to cross-react with other CLDN family members. HEK293 T cells engineered to express human CLDN6 fused to GFP, mouse CLDN6 fused to GFP, CLDN9-GFP, CLDN4-GFP, or CLDN3-GFP, or GFP alone (without CLDN6) were used as artificial models of CLDN6 expression. ARK2, OVCA429, LS513 and MCF7 cells were used as endogenous models of CLDN6 expression, as well as models for CLDN3/4 expression.
(§3) For each type of cell tested and for each mAb, cells were detached from the surface of the culture flasks by EDTA (instead of trypsin) in order to protect the cell surface proteins. The detached cells were then incubated with Alexa Fluor®-labeled CLDN6 mAbs for 30 min in the dark on ice at a pre-determined concentration. The CLDN6 mAbs were directly labeled with Alexa Fluor® 647 NHS Ester (Succinimidyl Ester). After washing, the cells were read by a BD Accuri™ Flow Cytometer C6 to detect antibody-antigen protein binding in channel FL4H. Each antibody was tested at varied concentrations to establish a dose-fluorescence curve. The EC50/IC50 of the antibodies (the concentration of the antibody at which half the max value were calculated based on the values of FL4H (gated in viable singlet cells) using the Very Simple IC50 Tool kit available online which allows biological dose-response data to be plotted and fitted to curve types to give the EC50/IC50. The max value was the lowest concentration of the antibody at which fluorescence maxes out. The antibodies were also screened for their ability to cross-react with other CLDN proteins such as CLDN9, CLDN3, and CLDN4. These values were used to determine each antibody's relative affinity among the set of antibodies tested. Cross-reactivity data were obtained using a similar methodology, but with cells having a different expression profile for CLDN6, CLDN3, CLDN4 and CLDN9.
A word on the EC50: it is the concentration giving half of the maximal effect. A lower EC50 goes with greater potency. For the molecule B1, the concentration giving a half-maximal response (EC50) came out at 1160 nM.
The same measure, in the same setting: as for B2, the figure is 168 nM.
Still for that read-out and setting: the result for B3 reads 2470 nM; that for B4, 1090 nM.
For the molecule B5, the EC50 was found to be 394 nM.
On the same count and under the same terms, the result for B6 reads 84 nM.
Still for that read-out and setting: the result for B7 reads 531 nM.
Still for that read-out and setting: the result for B8 reads 5 nM.
In turn, B9 gave an EC50 of 835 nM.
In turn, B10 showed an EC50 of 2290 nM.
The same measure, in the same setting: as for B11, the figure is 1100 nM; as for B12, 912 nM.
Same read-out and setting: as for B13, the figure is 2290 nM.

The target is the same in a further assay. As to the kind of experiment: FACS, AF647-labelled mAb, ARK2 cells. The protocol:
as §1, §2, §3
(A flow cytometer gives signals particle by particle.)
For the molecule B1, a half-maximal response (EC50) required 1140 nM.
In turn, B2 yielded a concentration for a half-maximal effect (EC50) of 48 nM. Against the preceding molecule, the EC50 is about 24-fold lower.
Regarding B3, it took 2140 nM to reach a half-maximal effect (EC50). Compared with the last molecule, the EC50 is about 45-fold higher.
On the same count and under the same terms, as for B4, the figure is 1140 nM.
Consider B5, for which the response was half-maximal at 765 nM (EC50).
On the same count and under the same terms, as for B6, the figure is 105 nM.
Still for that read-out and setting: the result for B7 reads 353 nM; that for B8, 8 nM; that for B9, 363 nM.
Still for that read-out and setting: the result for B10 reads 1150 nM; that for B11, 1650 nM; that for B12, 1360 nM.
B13 showed an EC50 of 1300 nM.

Another assay deals with T2, human CLDN6 fused to GFP, expressed on …. Description: FACS, AF647-labelled mAb, HEK293T-CLDN6-mGFP cells. The protocol: as §1, §2, §3
In the case of B1, the concentration giving a half-maximal response (EC50) worked out at 2670 nM.
Still for that read-out and setting: as for B2, the figure is 17 nM; as for B3, 2760 nM; as for B4, 1920 nM.
Molecule B5 yielded a half-maximal effective concentration (EC50) of 1430 nM.
On the same count and under the same terms, as for B6, the figure is 109 nM.
The same measure, in the same setting: the result for B7 reads 579 nM.
On the same count and under the same terms, the result for B8 reads 10 nM; that for B9, 1700 nM; that for B10, not below 5000 nM.
In turn, B11 gave a concentration giving a half-maximal response (EC50) of 604 nM.
Same read-out and setting: the result for B12 reads 182 nM; that for B13, not below 5000 nM; that for B14, not below 5000 nM.
